The subject of assay [1] is human iPS cell-derived motor neuron / variant human SOD1 (G93A)-expressing astrocyte coculture. As to the kind of experiment: Motor neuron protection in in vitro ALS model derived from human iPS cells. The note with it: antibody A 10, 30, 100 nM; EphA4-Fc 3, 10, 30 nM; KYL peptide 1, 3, 10 μM; 2 days. The format is cell-based. Here is the method:
Human iPS cells were maintained and cultured according to the following steps. Human iPS cells (201B7) cryopreserved in liquid nitrogen using Stem cell banker (TAKARA) were taken out of the gas phase of liquid nitrogen and immediately suspended and thawed in 5 mL of a human iPS cell culture medium (Essential 8, Thermo Fisher Scientific) prewarmed to 37° C. The cell suspension was recovered into a 15-mL conical tube (Falcon) and centrifuged (1000 rpm, 5 min, room temperature), followed by the removal of the supernatant. The cells were suspended in a fresh medium and then disseminated to a ϕ60 mm cell culture dish (Falcon BD) coated with 0.5 μg/cm^2 Human recombinant vitronectin (Invitrogen) in advance. 10 μM Y-27632 (Wako Pure Chemical Industries) was added thereto, and the cells were maintained and cultured in a CO2 incubator (5% CO2, 37° C.). Medium replacement was performed every day, and the cells were subjected to the experiment when reaching confluency.
The culture medium of the maintained and cultured human iPS cells was aspirated, and the cells were washed with 2 mL of PBS (Wako Pure Chemical Industries). […] Then, the number of cells was counted using a counting chamber. […]

A further assay concerns rat hippocampal neurons. As to the kind of experiment: Ligand-induced growth cone collapse in hippocampal neurons. The note with it: antibody A 0.1, 0.3, 1 μM; KYL peptide 10, 30, 100 μM. Format: cell-based. The method, then:
Rat hippocampal neurons were prepared as described in Example 10 above. The cells were inoculated to a 96-well plate (Greiner Bio-One) coated with poly-L-lysine containing culture solution.
The growth cone collapse assay using the hippocampal neurons was conducted according to the following steps. The rat hippocampal neurons of culture day 2 inoculated to the 96-well dish (Greiner Bio-One) were treated with PBS (Wako Pure Chemical Industries), antibody A (0.1, 0.3, and 1 μM), or an EphA4 inhibitor KYL peptide (KYLPYWPVLSSL, 10, 30, and 100 μM, its synthesis was outsourced to Toray Research Center) for 15 minutes and then treated with goat anti-human Fcγ fragment IgG1 antibody (Jackson ImmunoResearch Laboratories)-preclustered mouse Ephrin A1-Fc chimera (R&D Systems, final concentration: 1 μg/mL) (ratio: 1:5) for 30 minutes. Then, the culture solution was removed, and 2% PFA (Wako Pure Chemical Industries)/4% sucrose (Wako Pure Chemical Industries)/PBS was added, and left standing for 20 minutes to fix the cells. The solution was removed, and the cells were washed with PBS three times, followed by the addition of 0.25% Triton X-100 (Wako Pure Chemical Industries)/PBS for cell penetration treatment for 15 minutes. […] Neurons forming growth cone were counted in 30 fields of view per sample to calculate the proportion of the number of neurons causing growth cone collapse.

B1: antibody A: mouse anti-EphA4 monoclonal antibody, IgG1/κ; heavy chain variable region SEQ ID NO: 11, light chain variable region SEQ ID NO: 13 (antibody, listed as Mus musculus, V domains shown)
VH: QIQLVQSGPELKKPGETVKISCKASGYTFTDYSMHWVKQAPGKGLKWMGWINTETGEPTYADDFKGRFAFSLETSASTAYLQINNLKNEDTATYFCARIPLYYYGSRYWYFDVWGAGTTVTVSS
VL: DIQMTQSPASLSVSVGETVTITCRASENIYRNLAWYQQKQGKSPQLLVYAATNLADGVPSRFSGSGSGTQYSLKINSLQSEDFGSYYCQHFWGTPWTFGGGTKLEIK
B1: in assay [1], the “suppression of motor neuron death / motor neuron protective effect (in words)” value is given as “suppressed, in a concentration-dependent manner”. Also, in the assay with rat hippocampal neurons, the “suppression of growth cone collapse induced by mouse Ephrin A1 (in words)” value is given as “suppressed, in a concentration-dependent manner”.
